Measurements as given in publication PMC8905165, “Reconstitution of an active human CENP-E motor” (Open Biology, 2022).

B1: CENP-E483-2mNeon (domain or fragment, human, UniProt Q02224 1-483, looked up)
chain: MAEEGAVAVCVRVRPLNSREESLGETAQVYWKTDNNVIYQVDGSKSFNFDRVFHGNETTKNVYEEIAAPIIDSAIQGYNGTIFAYGQTASGKTYTMMGSEDHLGVIPRAIHDIFQKIKKFPDREFLLRVSYMEIYNETITDLLCGTQKMKPLIIREDVNRNVYVADLTEEVVYTSEMALKWITKGEKSRHYGETKMNQRSSRSHTIFRMILESREKGEPSNCEGSVKVSHLNLVDLAGSERAAQTGAAGVRLKEGCNINRSLFILGQVIKKLSDGQVGGFINYRDSKLTRILQNSLGGNAKTRIICTITPVSFDETLTALQFASTAKYMKNTPYVNEVSTDEALLKRYRKEIMDLKKQLEEVSLETRAQAMEKDQLAQLLEEKDLLQKVQNEKIENLTRMLVTSSSLTLQQELKAKRKRRVTWCLGKINKMKNSNYADQFNIPTNITTKTHKLSINLLREIDESVCSESDVFSNTLDTLSEIE
notes: human CENP-E, N-terminal truncation with the motor domain and the first predicted coiled-coil (334-401), ending at residue 483; the start at residue 1 is printed only for the ColabFold input (1-483); Codon-optimised synthetic gene in pFastBac1; A mixture of monomers and dimers in solution; also called truncated human CENP-E; minimal human CENP-E motor; source: Sf9 cells (baculovirus), purified …
B2: CENP-E754-2mNeon (domain or fragment, human, UniProt Q02224 1-754, looked up)
chain: MAEEGAVAVCVRVRPLNSREESLGETAQVYWKTDNNVIYQVDGSKSFNFDRVFHGNETTKNVYEEIAAPIIDSAIQGYNGTIFAYGQTASGKTYTMMGSEDHLGVIPRAIHDIFQKIKKFPDREFLLRVSYMEIYNETITDLLCGTQKMKPLIIREDVNRNVYVADLTEEVVYTSEMALKWITKGEKSRHYGETKMNQRSSRSHTIFRMILESREKGEPSNCEGSVKVSHLNLVDLAGSERAAQTGAAGVRLKEGCNINRSLFILGQVIKKLSDGQVGGFINYRDSKLTRILQNSLGGNAKTRIICTITPVSFDETLTALQFASTAKYMKNTPYVNEVSTDEALLKRYRKEIMDLKKQLEEVSLETRAQAMEKDQLAQLLEEKDLLQKVQNEKIENLTRMLVTSSSLTLQQELKAKRKRRVTWCLGKINKMKNSNYADQFNIPTNITTKTHKLSINLLREIDESVCSESDVFSNTLDTLSEIEWNPATKLLNQENIESELNSLRADYDNLVLDYEQLRTEKEEMELKLKEKNDLDEFEALERKTKKDQEMQLIHEISNLKNLVKHAEVYNQDLENELSSKVELLREKEDQIKKLQEYIDSQKLENIKMDLSYSLESIEDPKQMKQTLFDAETVALDAKRESAFLRSENLELKEKMKELATTYKQMENDIQLYQSQLEAKKKMQVDLEKELQSAFNEITKLTSLIDGKVPKDLLCNLELEGKITDLQKELNKEVEENEALREEVILLSELKSLPS
notes: human CENP-E, N-terminal truncation with the motor domain and five predicted coiled-coils of the native stalk, ending at residue 754; The methods call it a dimeric motor; the self-association row is of one chain with another; also called truncated CENP-E; source: Sf9 cells (baculovirus), purified (HisTrap, Superose 6); not shown: mNeonGreen (2 x tandem), C-terminal, kept

Columns and labels:
[1] = target: the molecule itself; test: native gel or EMSA; native PAGE of purified CENP-E483-2mNeon; monomer to dimer
[2] = target: the molecule itself; test: single-molecule photobleaching step counting and initial intensity analysis (TIRF); 0.5 nM fluorescently tagged motor adsorbed non-specifically to silanized coverslips, BRB80 with oxygen scavenger mix, 30°C; monomer to dimer

| Protein | stoichiometry N [1] | binding result [2] |
| --- | --- | --- |
| B1 | 2 | – |
| B2 | – | binds |
